Common to all, as to experiment: cell-based or functional assay
Assay [1] addresses human GLP-1 receptor (GLP-1R) (human, UniProt P43220 24-463).
For assay [2], the target named is T1, human gastric inhibitory peptide receptor (GIPR) (human, UniProt P48546 22-466).
T1 sequence (looked up): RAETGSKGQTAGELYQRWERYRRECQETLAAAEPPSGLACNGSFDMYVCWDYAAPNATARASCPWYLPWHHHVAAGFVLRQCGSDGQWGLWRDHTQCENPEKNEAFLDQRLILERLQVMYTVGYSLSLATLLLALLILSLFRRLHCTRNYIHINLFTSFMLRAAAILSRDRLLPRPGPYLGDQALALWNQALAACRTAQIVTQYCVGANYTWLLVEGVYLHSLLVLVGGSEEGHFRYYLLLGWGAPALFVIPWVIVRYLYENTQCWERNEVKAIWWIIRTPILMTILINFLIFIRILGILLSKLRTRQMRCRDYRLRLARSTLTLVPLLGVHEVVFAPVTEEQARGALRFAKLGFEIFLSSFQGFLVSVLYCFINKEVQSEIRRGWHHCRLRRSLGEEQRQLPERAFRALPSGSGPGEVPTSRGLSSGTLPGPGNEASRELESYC

Assay [3] deals with T2, human gastric inhibitory peptide receptor (GIPR) (human), P48546.
T2 chain: T1 sequence (looked up)

Assay [4] has as its target T3, human GLP-1 receptor (GLP-1R) (human), P43220.
T3 chain: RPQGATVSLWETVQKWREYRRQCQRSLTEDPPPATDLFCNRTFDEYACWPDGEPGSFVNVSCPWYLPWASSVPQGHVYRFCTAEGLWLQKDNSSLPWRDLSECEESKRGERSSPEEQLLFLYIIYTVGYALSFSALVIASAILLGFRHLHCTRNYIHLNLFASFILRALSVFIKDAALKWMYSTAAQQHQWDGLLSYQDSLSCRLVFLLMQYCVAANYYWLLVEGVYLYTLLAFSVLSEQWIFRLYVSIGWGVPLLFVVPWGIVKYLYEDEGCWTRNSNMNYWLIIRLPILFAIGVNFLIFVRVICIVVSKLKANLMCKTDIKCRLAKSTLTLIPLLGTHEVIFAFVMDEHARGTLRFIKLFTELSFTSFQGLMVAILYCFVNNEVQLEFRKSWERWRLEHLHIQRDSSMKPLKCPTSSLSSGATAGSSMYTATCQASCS

Three molecules from patent US20200024322A1 (Eli Lilly, published 2020) can be followed below.

Numbered stars: 1 amine (or outer) side, 2 acyl side, 3 side chain; on linkers, the order of the positions; unused ones are H or OH. Square brackets hold non-standard residues; d marks the D form. Side chains are listed from the residue outwards. Ends that are not written are not given here. * marks the point of attachment. C18 diacid = O=C(O)CCCCCCCCCCCCCCCCC(=O)*; αMePhe(2-F) = C[C@](N)(Cc1ccccc1F)C(=O)O; γGlu = O=C(O)[C@H](CCC(=O)[*:2])N[*:1]; αMeL = CC(C)C[C@](C)(N)C(=O)O; AEEA = NCCOCCOCC(=O)O; Aib = CC(C)(N)C(=O)O

B1: (D-Tyr)-Aib-EGTFTSDYSI-αMeL-LD-Orn-K((2-[2-(2-Amino-ethoxy)-ethoxy]-acetyl)2-(γ-Glu)-CO-(CH2)18-CO2H)AQ-Aib-EFIE-αMeY-LIEGGPSSGAPPPS-NH2 (peptide)
peptide: XXEGTFTSDYSIXLDXKAQXEFIEXLIEGGPSSGAPPPS
modifications: D-Tyr1; Aib2; αMeL13; Orn16; K17 conjugated to (2-[2-(2-Amino-ethoxy)-ethoxy]-acetyl)2-(γ-Glu)-CO-(CH2)18-CO2H; Aib20; αMeY25; C-terminal amide (NH2)
Consider B1, for which, in assay [1], the “hGLP1R cAMP EC50 ratio” value was 0.115. The “hGIPR cAMP EC50 ratio” value in assay [2] was 0.374.

B2: Example 180 (peptide)
peptide: Y[Aib]EGT[αMePhe(2-F)]TSDHSI[αMeL]LDEK([AEEA-AEEA-γGlu-C18 diacid])AQ[Aib]HFI[dE]YLIEGG-NH2
modifications: not fully specified
Consider B2, for which, in assay [3], the hGIPR cAMP EC50 ratio was 0.133 and the hGIPR cAMP Rel EC50 amounted to 0.79 nM. In assay [4], the hGLP1R cAMP EC50 ratio stood at 0.0212 and the hGLP1R cAMP Rel EC50 was determined as 2.16 nM.

B3: Example 179 (peptide)
peptide: Y[Aib]EGT[αMePhe(2-F)]TSDHSI[αMeL]LDEK([AEEA-AEEA-γGlu-C18 diacid])AQ[Aib]HFI[dE]YLIEGGPSSG-NH2
modifications: not fully specified
As for B3, in assay [3], the hGIPR cAMP EC50 ratio turned out to be 0.0575 and the hGIPR cAMP Rel EC50 came out at 1.83 nM. Further, in assay [4], the hGLP1R cAMP EC50 ratio amounted to 0.0169 and the hGLP1R cAMP Rel EC50 amounted to 2.7 nM.
